# Laboratory results from paper PMC12494543, “Identification of ALKBH6 as a nucleotide demethylase with a distinct substrate preference” (The Journal of Biological Chemistry, 2025).
# B1: ALKBH6 (Homo sapiens) (protein)
# chain: MEEQDARVPALEPFRVEQAPPVIYYVPDFISKEEEEYLLRQVFNAPKPKWTQLSGRKLQNWGGLPHPRGMVPERLPPWLQRYVDKVSNLSLFGGLPANHVLVNQYLPGEGIMPHEDGPLYYPTVSTISLGSHTVLDFYEPRRPEDDDPTEQPRPPPRPTTSLLLEPRSLLVLRGPAYTRLLHGIAAARVDALDAASSPPNAAACPSARPGACLVRGTRVSLTIRRVPRVLRAGLLLGK
# notes: His-tag; made in house
# Assays:
# [1] = substrate: C[n+]1cn([C@@H]2O[C@H](COP(=O)(O)O)[C@@H](O)[C@H]2O)c2nc(N)[nH]c(=O)c21; experiment: FDH-coupled formaldehyde release demethylation assay; assay type: biochemical, human; details: other: substrate of ALKBH6, Michaelis-Menten; 37.0 °C
# Experimental: (§1) NMPs including 1meAMP (Jena Bioscience, NU-1029-1,) 7meGMP (Jena Bioscience, NU-1135S), 6me-AMP (Sigma, M2780) were purchased. N-methylated deoxy-NMPs were prepared by methylating chemically synthesized 30-mer oligonucleotide containing either dA, dG, dC, or dT by MMS (5%, v/v) (0.59 M) MMS (Sigma, 129925) and purified as described before ([17]). The oligonucleotides were digested with nuclease P1 (NEB) at 37 °C for 4 h to produce deoxy-NMPs. After heat inactivating the nuclease, dNMPs were purified by HPLC and used for the demethylation reaction. N-methylated NMPs were purified similarly, using RNA as the starting material. For the demethylation reaction, ALKBH6 (1 μM) and me-dNMPs (1 mM) were mixed in the dioxygenase reaction buffer and incubated at 37 °C for 30 min. Formaldehyde release was detected by FDH-coupled DNA repair assay as described before ([32], [33]). Briefly, 1 mM NAD+ and 0.01 U FDH were added to the dioxygenase reaction buffer containing methylated nucleotide and ALKBH6. NADH generated was detected by the characteristic absorption peak (340 nm) using a 96-well multimode reader (Synergy, Biotek Instrument). Formaldehyde production was quantified from the standard curve and the initial velocities were determined using various substrate concentrations. The results were plotted and analyzed using GraphPad Prism.
# [2] = substrate: C[n+]1cnc2c(ncn2[C@@H]2O[C@H](COP(=O)(O)O)[C@@H](O)[C@H]2O)c1N; experiment: as above; assay type: biochemical, human; details: other: substrate of ALKBH6, Michaelis-Menten; 37.0 °C
# Experimental: as §1
protein,measurement,setting,value
B1,Km,[1],1.03 µM
same,kcat,[1],0.167 s⁻¹
same,Km,[2],0.96 µM
same,kcat,[2],0.18 s⁻¹
